According to patent US10596234B2, “Compositions and methods to inhibit viral replication” (priority 2016, dated 2020):
Substitutions are numbered along the chain they refer to. In names and notes the source's numbering stands.

How the values were obtained:
UL37C (571-1123) = target: T1, UL37C (571-1123) (Human herpesvirus 1, UniProt P10221); assay: Cysteine labeling with electrophile and tandem mass spectrometry; type: biochemical, HSV-1; conditions: for C819 labeled by CNM: 45 minutes
T1 construct: bacterial purified UL37 (571-1123) was treated with N-methylacetamide; His; made in house; host or cells: E. coli BL21(DE3)
Procedure: […] Samples were then blocked with Iodoacetamide (Sigma) (50 mM) at room temperature for 1 h and subjected to Mass Spectrometry analysis (Poochon Scientific).

RIG-I [1] = assay: Two-dimensional gel electrophoresis of RIG-I deamidation in cells; type: cell-based, human; conditions: 293T/RIG-I cells transfected with UL37, DON 10 μM
Procedure: Cells (1×10^6) were lysed in 150 μl rehydration buffer (8 M Urea, 2% CHAPS, 0.5% IPG Buffer, 0.002% bromophenol blue) by three pulses of sonication and whole cell lysates were centrifuged at 20,000 g for 15 min. Supernatants were loaded to IEF strips for focusing with a program comprising: 20 V, 10 h (rehydration); 100 V, 1 h; 500 V, 1 h; 1000 V, 1 h; 2000 V, 1 h; 4000 V, 1 h; 8000 V, 4 h. After IEF, strips were incubated with SDS equilibration buffer (50 mM Tris-HCl [pH8.8], 6 M urea, 30% glycerol, 2% SDS, 0.001% Bromophenol Blue) containing 10 mg/ml DTT for 15 min and then SDS equilibration buffer containing 2-iodoacetamide for 15 min. Strips were washed with SDS-PAGE buffer, resolved by SDS-PAGE, and analyzed by immunoblotting.

HSV-1 = HSV-1 plaque assay in HEK293 cells stably expressing RIG-I wild-type or mutants; type: cell-based; conditions: HEK293 stable cells, HSV-1 MOI=0.5
RIG-I [2] = assay: In vitro ATPase activity assay; type: biochemical, human; conditions: purified RIG-I proteins; for ATPase activity kcat: at physiological ATP concentrations; for ability to hydrolyze ATP: with or without 5′ppp-RNA
Procedure: (§1) Purified RIG-I or RIG-I mutants were incubated with 5′-ppp-dsRNA (Invivogen) at 37° C. for 20 min in ATPase reaction buffer (50 mM Tris-HCl, pH 7.5, 2.5 mM MgCl2, and ATP. Released phosphates were measured using a PiColorLock™ phosphate detection reagent (Innova Biosciences). For reactions with varying concentrations of ATP, the concentrations of RIG-I proteins and RNA were 20 nM and 80 nM, respectively. For reactions with varying concentrations of the RNA, the concentrations of RIG-I proteins and ATP were 20 nM and 500 μM, respectively.
as §1, with “ATP).” for “ATP.”

[3] = test system: 5′-triphosphate 19mer dsRNA; assay: RNA electrophoresis mobility shift assay (EMSA); type: binding; conditions: 32P-labeled 5′-triphosphate 19mer dsRNA
Procedure: RNA EMSA was performed as previously described (Takahasi et al., 2008). 5′-ppp-dsRNA and control dsRNA were purchased from Invivogen and bottom strands were labeled with γ-[P^32]ATP by T4 polynucleotide kinase (NEB). Purified RIG-I and RIG-I mutants were incubated with dsRNA at room temperature for 15 min. Binding buffer contains 20 mM Tris-HCl (pH=8.0), 1.5 mM MgCl2 and 1.5 mM DTT. Unlabeled ppp-dsRNA was used as competitor at 500-fold in excess. The reaction mixtures were run on 5% native polyacrylamide gels at a constant voltage of 200 V. Gels were dried and subjected to phosphorimaging.

PRDIII promoter = assay: Dual-luciferase reporter assay (PRDIII, SeV infection); type: cell-based, human; conditions: 293T cells, SeV 100 HAU/ml
Procedure: HEK293T cells, seeded in 24-well plates (˜50% cell density), were transfected with IFN-β, PRDIII (ISRE) or NF-κB reporter plasmid cocktail (50 ng of luciferase reporter plasmid and 5 ng of pRL Renilla luciferase control vector) and expression plasmid (empty plasmid, one or multiple plasmids depending on the experiment) by calcium phosphate precipitation. Cells were infected with SeV (100 HA/ml), HSV-1 for 16 h, transfected with Poly [I:C] for 16 h or directly harvested 30-36 h post transfection. Whole cell lysates were used to determine the activity of firefly luciferase and renilla luciferase by a microplate reader (FLUOstar Omega).

## O=C(CCl)NCO [CNM, 2-Chloro-N-(hydroxymethyl) acetamide]
UL37C (571-1123); CNM 1 μM
  C819 labeled by CNM: 38.3%
UL37C (571-1123); CNM 10 μM
  C819 labeled by CNM: 42.5%
UL37C (571-1123); CNM 1 and 10 μM
  C850 labeled by CNM: < 10%

## [N-]=[N+]=CC(=O)CC[C@H](N)C(=O)O [DON, 6-diazo-5-oxo-L-norleucine, reference compound]
RIG-I [1]
  UL37-induced RIG-I deamidation in cells: inhibited RIG-I deamidation

B1: RIG-I-WT: wild-type RIG-I polypeptide, SEQ ID NO. 3 (protein, listed as Homo sapiens)
chain: MTTEQRRSLQAFQDYIRKTLDPTYILSYMAPWFREEEVQYIQAEKNNKGPMEAATLFLKFLLELQEEGWFRGFLDALDHAGYSGLYEAIESWDFKKIEKLEEYRLLLKRLQPEFKTRIIPTDIISDLSECLINQECEEILQICSTKGMMAGAEKLVECLLRSDKENWPKTLKLALEKERNKFSELWIVEKGIKDVETEDLEDKMETSDIQIFYQEDPECQNLSENSCPPSEVSDTNLYSPFKPRNYQLELALPAMKGKNTIICAPTGCGKTFVSLLICEHHLKKFPQGQKGKVVFFANQIPVYEQQKSVFSKYFERHGYRVTGISGATAENVPVEQIVENNDIIILTPQILVNNLKKGTIPSLSIFTLMIFDECHNTSKQHPYNMIMFNYLDQKLGGSSGPLPQVIGLTASVGVGDAKNTDEALDYICKLCASLDASVIATVKHNLEELEQVVYKPQKFFRKVESRISDKFKYIIAQLMRDTESLAKRICKDLENLSQIQNREFGTQKYEQWIVTVQKACMVFQMPDKDEESRICKALFLYTSHLRKYNDALIISEHARMKDALDYLKDFFSNVRAAGFEEIEQDLTQRFEEKLQELESVSRDPSNENPKLEDLCFILQEEYHLNPETITILFVKTRALVDALKNWIEGNPKLSFLKPGILTGRGKTNQNTGMTLPAQKCILDAFKASGDHNILIATSVADEGIDIAQCNLVILYEYVGNVIKMIQTRGRGRARGSKCFLLTSNAGVIEKEQINMYKEKMMNDSILRLQTWDEAVFREKILHIQTHEKFIRDSQEKPKPVPDKENKKLLCRKCKALACYTADVRVIEECHYTVLGDAFKECFVSRPHPKPKQFSSFEKRAKIFCARQNCSHDWGIHVKYKTFEIPVIKIESFVVEDIATGVQTLYSKWKDFHFEKIPFDPAEMSK
HSV-1
  reduction of HSV-1 replication / titer: ~50%
RIG-I [2]
  ATPase activity kcat: 944 s⁻¹

B2: RIG-I-N495D (protein, UniProt O95786 1-925, looked up, variant N495D)
Antiviral innate immune …: B1 chain with N495D, E580D
RIG-I [2]
  ability to hydrolyze ATP: basal or no ATPase activity
[3]
  RNA-binding (RIG-I:RNA complex formation): comparable RNA-binding affinity to RIG-I-WT

B3: RIG-I-N549D (protein, UniProt O95786 1-925, looked up, variant N549D)
Antiviral innate immune …: B1 chain with N549D, E580D
RIG-I [2]
  ability to hydrolyze ATP: basal or no ATPase activity

B4: RIG-I-DD (protein)
chain: B1 chain with N495D, N549D
modifications: left off: small tags and cut ends
HSV-1
  reduction of HSV-1 replication / titer: marginal effect
RIG-I [2]
  ATPase activity kcat: 32.6 s⁻¹
  ability to hydrolyze ATP: completely lost its ability to hydrolyze ATP
[3]
  RNA-binding (RIG-I:RNA complex formation): significantly impaired in forming the fast migrating RIG-I:RNA complex

B5: C850S (protein)
chain: MADRGLPSEAPVVTTSPAGPPSDGPMQRLLASLAGLRQPPTPTAETANGADDPAFLATAKLRAAMAAFLLSGTAIAPADARDCWRPLLEHLCALHRAHGLPETALLAENLPGLLVHRLVVALPEAPDQAFREMEVIKDTILAVTGSDTSHALDSAGLRTAAALGPVRVRQCAVEWIDRWQTVTKSCLAMSPRTSIEALGETSLKMAPVPLGQPSANLTTPAYSLLFPAPFVQEGLRFLALVSNRVTLFSAHLQRIDDATLTPLTRALFTLALVDEYLTTPERGAVVPPPLLAQFQHTVREIDPAIMIPPLEANKMVRSREEVRVSTALSRVSPRSACAPPGTLMARVRTDVAVFDPDVPFLSSSALAVFQPAVSSLLQLGEQPSAGAQQRLLALLQQTWTLIQNTNSPSVVINTLIDAGFTPSHCTHYLSALEGFLAAGVPARTPTGHGLGEVQQLFGCIALAGSNVFGLAREYGYYANYVKTFRRVQGASEHTHGRLCEAVGLSGGVLSQTLARIMGPAVPTEHLASLRRALVGEFETAERRFSSGQPSLLRETALIWIDVYGQTHWDITPTTPATPLSALLPVGQPSHAPSVHLAAATQIRFPALEGIHPNVLADPGFVPYVLALVVGDALRATCSAAYLPRPVEFALRVLAWARDFGLGYLPTVEGHRTKLGALITLLEPAARGGLGPTMQMADNIEQLLRELYVISRGAVEQLRPLVQLQPPPPPEVGTSLLLISMYALAARGVLQDLAERADPLIRQLEDAIVLLRLHMRTLSAFFECRFESDGRRLYAVVGDTPDRLGPWPPEAMGDAVSQYCSMYHDAKRALVASLASLRSVITETTAHLGVSDELAAQVSHEDNVLAVVRREIHGFLSVVSGIHARASKLLSGDQVPGFCFMGQFLARWRRLSACYQAARAAAGPEPVAEFVQELHDTWKGLQTERAVVVAPLVSSADQRAAAIREVMAHAPEDAPPQSPAADRVVLTSRRDLGAWGDYSLGPLGQTTAVPDSVDLSRQGLAVTLSMDWLLMNELLRVTDGVFRASAFRPLAGPESPRDLEVRDAGNSLPAPMPMDAQKPEAYGHGPRQADREGAPHSNTPVEDDEMIPEDTVAPPTDLPLTSYQ
PRDIII promoter
  blockade of SeV-induced PRDIII promoter activation: greatly impaired blockade of PRDIII induction by SeV
